Molecular target: Mycobacterium thermoresistibile (Mth) Class Ib ribonucleotide reductase catalytic α-subunit (NrdE), purified alone (M. thermoresistibile)
Experiment: SEC-MALS

## Mycobacterium thermoresistibile (Mth) Class Ib ribonucleotide reductase catalytic α-subunit (NrdE), purified alone (enzyme)
  stoichiometry N: 2

Source: article doi:10.64898/2025.12.21.695763
